This experiment relates to Human Embryonic Stem Cells (H1 hESC line). Nature of the experiment: High content analysis of cell number, PDX1 and CDX2 protein expression at conclusion of third step of differentiation (Example 12). The class given is cell-based. Conditions: end of third step; peptide given during first step; compared with commercial activin A or ACTN1. The procedure:
At the conclusion of the first step of the differentiation protocol, replicate sets of parallel wells for each treatment group were subjected to further step-wise differentiation. It is important to note that after the first three days, all wells undergoing continuing culture and differentiation received the same treatment. The protocol for this continuing differentiation is described below.
During the second step of differentiation, cultures were grown for two days in DMEM:F12 medium (Invitrogen; Cat #11330-032) supplemented with 2% Albumin Bovine Fraction V, Fatty Acid Free (FAF BSA) (MP Biomedicals, Inc; Cat #152401), 50 ng/ml FGF7 (PeproTech; Cat #100-19), and 250 nM cyclopamine (Calbiochem; Cat #239804). Medium in each well was aspirated and replaced with a fresh aliquot (0.5 ml) on both days.
Step 3 of the differentiation protocol was carried out over four days. Cells were fed daily by aspirating medium from each well and replacing with a fresh aliquot (0.5 ml) of DMEM-high glucose (Invitrogen; Cat #10569) supplemented with 1% B27 (Invitrogen; Cat #17504-044), 50 ng/ml FGF7, 100 ng/ml Noggin (R&D Systems; Cat #3344-NG), 250 nM KAAD-cyclopamine (Calbiochem; Cat #239804), and 2 μM all-trans retinoic acid (RA) (Sigma-Aldrich; Cat #R2625). At the conclusion of the third step of differentiation, cells from some wells were harvested for analysis by RT-PCR to measure markers of differentiation. Other culture wells were subjected to high content image analysis for protein expression levels of PDX1, a transcription factor correlated with pancreatic endoderm differentiation, and CDX2, a transcription factor associated with intestinal endoderm.
High Content Analysis: At the conclusion of three days of culture, assay plates were washed once with PBS (Invitrogen; Cat #14190), fixed with 4% paraformaldehyde (Alexis Biochemical; Cat #ALX-350-011) at room temperature for 20 minutes, then washed three times with PBS and permeabilized with 0.5% Triton X-100 (Sigma; Cat #T8760-2) for 20 minutes at room temperature. Cells were washed again three times with PBS and blocked with 4% chicken serum (Invitrogen; Cat #16110082) in PBS for 30 minutes at room temperature. Primary antibody (goat anti-human SOX17; R&D Systems; Cat #AF1924) was diluted 1:100 in 4% chicken serum and added to each well for two hours at room temperature. […]
Imaging was performed using an IN Cell Analyzer 1000 (GE Healthcare) utilizing the 51008bs dichroic for cells stained with Hoechst 33342 and Alexa Fluor 488. […] Segmentation for the nuclei was determined based on gray-scale levels (baseline range 100-300) and nuclear size. Averages and standard deviations were calculated for each replicate data set. […]

B1: ACTN4: activin A variant peptide, SEQ ID 5 (protein)
chain: GLECDGKVNLCCKKQLFVSFKDIGWNDWIIAPSGYHANHCSGLCPSHIAGTSGSSLSFHSTVINHYRMRGHSPFSDMGACCVPTKLRPMSMLYYDDGQNIIKKDIQNMIVEECGCS
For the molecule B1, the cell numbers result was “equivalent cell numbers”; the “protein expression of PDX1 and CDX2” value is reported as “equivalent protein expression”.

B2: ACTN48: activin A variant peptide, SEQ ID 49 (protein)
chain: GLECDGKVNLCCKKQNFVSFKDIGWNDWIIAPSGYHANECSGLCPSHIAGTSGSSLSFHSTVINHYRMRGHSPFANMGACCIPTKLRPMSMLYYDDGQNIIKKDIQNMIVEECGCS
For B2, the cell numbers entry is “equivalent cell numbers”; the “protein expression of PDX1 and CDX2” value was “equivalent protein expression”.
